Measurements taken from patent US8551951B2, “Pharmaceutical preparations and methods for inhibiting tumors” (Aenorasis SA Pharmaceuticals and Medical Devices, priority 2000, dated 2013).
Where “and” joins values, the source holds several entries; their conditions need not be identical. Equal entries are not always repeated.

Key:
Mat Ly Lu (MLL) tumor [1] = experiment: Study MLL-1, Mat LyLu tumor implanted in nude mice; assay type: in vivo; settings: 1 μg/kg/day s.c.; p=0.042
Experimental: (§1) Studies MLL-1 and MLL-2 were performed as follows; on day 0, male Copenhagen rats were injected subcutaneously with 5×10^5 Mat LyLu cells per rat. These cells were derived from cultures of Mat LyLu cell line grown in RPMI media containing 10% (v/v) of fetal calf serum in logarithmic phase of growth. Cells were harvested from the culture flasks by trypsinization, were centrifuged at 1200 rotation per minute (rpm) and washed three timed with Hanks balanced salt solution (HBSS). Following washing, cells were counted and adjusted to a concentration of 5×10^6 cells/ml in HBSS. A 0.1 ml volume of tumor cell inoculum containing 5×10^5 cells was administered subcutaneously into the flank region of each rat. Three days after tumor cell implantation (i.e., inoculation), animals were treated daily by a subcutaneous injection of the desired polypeptide until day 13.
Experiments illustrated in FIG. 12 show the anti-tumor efficacy validation of rHuPSP94 against Mat LyLu (MLL) tumor implanted in nude mice (Protocol based on S. Garde et al.; The Prostate, 22: 225-233, 1993).
For study MLL-1 (FIG. 12), tumor-implanted nude mice were separated in different groups, each receiving various amount of rHuPSP94 or control reagents. The different groups used in these experiments are illustrated below. Each group contained 8 mice.

[2] = system: human prostate cancer cells PC-3; experiment: MTS assay, growth inhibitory effect on PC-3 cells; assay type: cell-based; settings: for % Viability (control = 100%): 72 hours
From the text: Cell proliferation was monitored on PC-3 cells using the MTS/PMS (phenazine methosulfate) kit (Promega), which primarily measures mitochondrial activity of live cells. The basic principle of this method involves the fact that the mitochondrial enzymes of the live cells metabolize the MTS/PMS dyes forming a brown colored precipitate which can be measured as optical density (OD) by absorption at 490 nm in a spectrophotometer. Therefore, the OD values are proportional to the number of living cells. In addition, monitoring of cell morphology was also performed. Cell morphology would be indicative of their health status. For example, viable cells would appear adherent and spread out whereas dead cells would be in suspension in the media and would appear granular and round.
PC-3 cells (ATCC, Lot AT06) used in these experiments were at a passage number lower or equal to 70 (n≧70). Cells were seeded in Costar 96 well cell culture flat bottom plates in RPMI supplemented media containing 50 μg/ml of bovine serum albumin (BSA) and 0.1 μM FeSO4. Peptide was diluted in the same media. Cells were continuously exposed to the polypeptides of the present invention for 72 hours without changing media. Native PSP94 or rHuPSP94 concentrated two fold were directly added to wells and diluted to 1× in order to minimize cell manipulation and avoid detachment.
Native PSP94, rHuPSP94, polypeptide 22-36 and PB111 polypeptide (scrambled polypeptide) were also included in this experiment as controls. Cell proliferation assay was performed on either PC-3 cells or normal fibroblasts (used here as control) using the MTS/PMS kit (Promega). Four thousand cells (FIGS. 9 and 10) or three thousand (FIG. 11) cells were seeded in Costar 96 well cell culture flat bottom plates in RPMI supplemented media containing 50 μg/ml of bovine serum albumin (BSA) and 0.1 μM FeSO4. In addition, monitoring of cell morphology was also performed.
This assay measures the mitochondrial activity of the live cells. The basic principle of this method involves the fact that the mitochondrial enzymes of the live cells metabolize the MTS/PMS dyes forming a brown colored precipitate which can be measured as optical density (OD) by absorption at 490 nm in a spectrophotometer. Therefore, the OD values are proportional to the number of living cells.
In addition, a visual observation of the cells was also done to check the cell morphology, which could also be indicative of cell growth. The following conditions for MTS assay were used: PC-3 (ATCC, Lot AT06), passage number n≧70, cell line adapted to grow in serum-free OPTI-MEM and in RPMI supplemented with BSA (50 μg/ml) and Ferrous Sulfate (0.1 μM), continuous exposure for up to 72 hours without changing media (i.e., adding PCK3145 at 2× concentration directly to wells and diluting it 1:2 to 1× to minimize cell manipulation and avoid detachment).

PC-3 cells [3] = experiment: [^3H]-Thymidine uptake assay; assay type: cell-based, human; settings: for ^3[H]-Thymidine Uptake (% of control): 72 hours
Experimental: The in vitro growth inhibition effect of rHuPSP94 was assessed using [^3H]-Thymidine uptake assay. [^3H]-Thymidine uptake assay involves [^3H]-Thymidine incorporation into cellular DNA of actively proliferating cells. It measures the proliferative index of the cells versus the MTS assay, which quantifies the number of lived cells following treatment. Cells were seeded in Costar 96 well cell culture flat bottom plates in RPMI supplemented media containing 50 μg/ml of bovine serum albumin (BSA) and 0.1 μM FeSO4. PC-3 cells were exposed to various concentrations of rHuPSP94 for 72 hours and during the final 16 hours of incubation cells were pulsed with 1 μCi of [^3H]-Thymidine. The radioactivity in each well of the plate is counted by a beta-counter and is expressed as total counts per minutes (cpm). Results of in vitro effect of rHuPSP94 on PC-3 cells using the ^3[H]-Thymidine uptake assay are summarized in Table 3 and are expressed as percentage of radioactivity measured for treated-cells relative to the radioactivity measured for non-treated cells (for which [^3H]-thymidine uptake value was set at 100%).
[^3H]-Thymidine uptake assay involves [^3H]-Thymidine incorporation into cellular DNA of actively proliferating cells. [^3H]-Thymidine uptake assay measures the proliferative index of the cells versus the MTS assay, which quantifies the number of lived cells following treatment. The anti-proliferative effects of PCK3145 and two other synthetic polypeptides derived from the amino and carboxy terminus ends of PSP94 (SEQ ID NO: 4 and NO: 6, respectively) as well as the decapeptide (SEQ ID NO: 3) previously shown to mimic the biological action of native PSP94 were assessed in [H3]-Thymidine uptake assay on PC-3 cells. Two separate experiments were conducted with GMP-grade PCK3145.

[4] = system: PC-3 human prostate tumor; experiment: PC-3 human prostate tumor in nude mice, subcutaneous treatment for 14 days (Examples 10 and 11); assay type: in vivo, Nude mouse; settings: 1 μg/kg body weight per day s.c.
Experimental: PC-3 human prostate tumor was obtained from ATCC (ATCC 1435). PC-3 cells were grown in RPMI media containing 10% (v/v) of fetal calf serum and were harvested in the logarithmic phase of growth by trypsinization. Cells were centrifuged at 1200 rotation per minute (rpm) and washed three timed with Hanks balanced salt solution (HBSS). Following washing, cells were counted and adjusted to a concentration of 1×10^7 cells/ml in HBSS. A 0.1 ml volume of tumor cell inoculum containing 1×10^6 cells was administered subcutaneously into the two opposite flank region of each Nude mouse (Nu/Nu, BALE/c background). Tumor growth was monitored for approximately 18 days. Once tumor growth has been established (volume of tumor reached a volume of 50 mm^3) treatment with rHuPSP94 (SEQ ID NO: 2) was initiated and was performed once a day for 14 days by the subcutaneous route. Based on the assigned treatment groups illustrated in table 4.
PC-3 human prostate tumor (ATCC 1435) obtained from ATCC was implanted bilaterally into nude mice and tumor growth was monitored for approximately 18 days. PC-3 cells were injected once subcutaneously into each flank of the mice. Once tumor growth has been established (i.e., volume of tumor reached 0.25 to 0.50 cm^3) the treatment with decapeptide (SEQ ID NO: 3), native PSP94 (SEQ ID NO: 1) and control scrambled polypeptide PB111 was initiated and was performed once a day for 14 days by the subcutaneous route based on the treatment groups (randomly assigned) illustrated in table 5.

Mat Ly Lu (MLL) tumor [5] = experiment: Study MLL-2, Mat Ly Lu tumor implanted in SCID mice; assay type: in vivo; settings: 1 μg/kg/day s.c.; p=0.010
Experimental: as §1
Experiments illustrated in study MLL-2 show the anti-tumor efficacy validation of rHuPSP94 against Mat Ly Lu (MLL) tumor implanted in severe combined immunodeficiency (SCID) mice (Protocol based on S. Garde et al.; The Prostate, 22: 225-233, 1993).
For study MLL-2 (FIG. 13), tumor-implanted Scid mice were separated in different groups each receiving various amounts of rHuPSP94 or control reagents. The different groups used in these experiments are illustrated below. Each group contained 8 mice.

PC-3 cells [6] = experiment: DNA fragmentation assay (DNA ladder, apoptosis); assay type: cell-based, human
Experimental: Cell apoptosis result in DNA fragmentation can be evaluated by the presence of a DNA ladder visualized when DNA is run on a 1.2% agarose gel. DNA ladder assay (apoptosis assay) was performed following exposure of PC-3 to various concentrations of the polypeptides for 72 hours. The polypeptides that were used in this particular experiment are polypeptide 7-21 (SEQ ID NO: 4), polypeptide PCK3145 (SEQ ID NO: 5) and polypeptide 76-94 (SEQ ID NO: 6). […] This effect was especially evident following treatment with PCK3145 (SEQ ID NO: 5), which is illustrated by FIG. 7. Lane 1 of the gel illustrated in FIG. 7 represents a lambda HindIII digest standard.
Apoptosis of PC-3 cells, following a 72 hours exposure to PCK3145 at 500 μg/ml concentration, was evaluated in supplemented media by DNA fragmentation assay. Doxorubicin was used as a reference positive control. Untreated cells and PCK3145-treated cells were harvested and the DNA was isolated. Isolated DNA was run on a 1.2% agarose gel containing Ethidium Bromide (EtBr). […] Lane 1 of the gel illustrated in FIG. 25 represents the DNA marker (100 base pair DNA ladder). Lane 2 of the gel illustrated in FIG. 25 represents a control of untreated PC-3 cells.

[7] = system: follicle-stimulating hormone (FSH); settings: in-vitro and in-vivo in adult male rats; cited from earlier work
tumor cells = settings: exogenous PSP94, in vivo and in vitro; cited from earlier work

B1: rHuPSP94: recombinant human PSP94 expressed in yeast (Pichia pastoris), non-glycosylated, 10 cysteine residues, SEQ ID NO: 2 (protein)
chain: EAEAYVEFSCYFIPNEGVPGDSTRKCMDLKGNKHPINSEWQTDNCETCTCYETEISCCTLVSTPVGYDKDNCQRIFKKEDCKYIVVEKKDPKKTCSVSEWII
modifications: recombinant human PSP94 (rHuPSP94) produced from yeast
- tumor weight reduction (Mat Ly Lu (MLL) tumor [1]): 26%
- % Viability (control = 100%) ([2]; 5 μg/ml): 98% and 92% and 89%
- % Viability (control = 100%) ([2]; 10 μg/ml): 84% and 95% and 69%
- % Viability (control = 100%) ([2]; 20 μg/ml): 78% and 80% and 79%
- % Viability (control = 100%) ([2]; 40 μg/ml): 100% and 70% and 71% and 68% and 72% and 63% and 95%
- % Viability (control = 100%) ([2]; 60 μg/ml): 98% and 78% and 63% and 85% and 52%
- reduction in cell numbers (i.e., viability) ([2]; 80 μg/ml): 37% and 35%
- % Viability (control = 100%) ([2]; 80 μg/ml): 90% and 55% and 59% and 58% and 63% and 78% and 62%
- reduction in cell numbers (i.e., viability) ([2]; 120 μg/ml): 57%
- % Viability (control = 100%) ([2]; 120 μg/ml): 52% and 43% and 68% and 60%
- ^3[H]-Thymidine Uptake (% of control) (PC-3 cells [3]; 5 μg/ml): 94 % of control
- ^3[H]-Thymidine Uptake (% of control) (PC-3 cells [3]; 10 μg/ml): 101 % of control
- ^3[H]-Thymidine Uptake (% of control) (PC-3 cells [3]; 20 μg/ml): 98 % of control
- ^3[H]-Thymidine Uptake (% of control) (PC-3 cells [3]; 40 μg/ml): 79 % of control
- reduction in the percentage of cells incorporating [^3H]-thymidine (PC-3 cells [3]; 80 μg/ml for 72 hrs, compared to non-treated control): 65%
- ^3[H]-Thymidine Uptake (% of control) (PC-3 cells [3]; 80 μg/ml): 35 % of control
- tumor growth (tumor volume) [4]: tumor growth reduction
- tumor growth reduction compared with Doxorubicin (5 mg/kg/day) [4]: reduction was similar to that observed for Doxorubicin
- tumor weight reduction (Mat Ly Lu (MLL) tumor [5]): 65%

B2: native PSP94: Prostate Secretory Protein of 94 amino acids, native human seminal plasma protein, SEQ ID NO: 1 (protein)
chain: SCYFIPNEGVPGDSTRKCMDLKGNKHPINSEWQTDNCETCTCYETEISCCTLVSTPVGYDKDNCQRIFKKEDCKYIVVEKKDPKKTCSVSEWII
- DNA laddering effect (FIG. 7 lane 4) (PC-3 cells [6]; 20 μg): DNA laddering effect
- DNA laddering effect (FIG. 7 lane 3) (PC-3 cells [6]; 40 μg): DNA laddering effect
- secretion of circulating FSH [7]: suppress secretion of
- effect on tumor cell growth (tumor cells): inhibitory effect
- ^3[H]-Thymidine Uptake (% of control) (PC-3 cells [3]; 5 μg/ml): 97 % of control
- ^3[H]-Thymidine Uptake (% of control) (PC-3 cells [3]; 10 μg/ml): 98 % of control
- ^3[H]-Thymidine Uptake (% of control) (PC-3 cells [3]; 20 μg/ml): 100 % of control
- ^3[H]-Thymidine Uptake (% of control) (PC-3 cells [3]; 40 μg/ml): 98 % of control
- ^3[H]-Thymidine Uptake (% of control) (PC-3 cells [3]; 80 μg/ml): 77 % of control
- reduction in the [H3]-Thymidine uptake (PC-3 cells [3]; 72 hours exposure (FIG. 24)): ~50%
